Measured values as given in article PMC9427789.

What follows are binders tested against Burosumab (wild type) (assay: indirect ELISA). Conditions: chain shown with the change; level of the fitted curve at the highest mAb concentration, log [µg/mL] = 0.5; parent: est. 0.57; read off a plot.

Row | response | Binder
1 | 0.78 A450 | mouse FGF23 (wild type), Q9EPC2 T76R (protein) YPDTSPLLGSNWGSLTHLYTATARTSYHLQIHRDGHVDGTPHQTIYSALMIRSEDAGSVVITGAMTRRFLCMDLHGNIFGSLHFSPENCKFRQWTLENGYDVYLSQKHHYLVSLGRAKRIFQPGTNPPPFSQFLARRNEVPLLHFYTVRPRRHTR
2 | 0.59 A450 | mouse FGF23 (wild type), Q9EPC2 T49N (protein) YPDTSPLLGSNWGSLTHLYTATARNSYHLQIHRDGHVDGTPHQTIYSALMITSEDAGSVVITGAMTRRFLCMDLHGNIFGSLHFSPENCKFRQWTLENGYDVYLSQKHHYLVSLGRAKRIFQPGTNPPPFSQFLARRNEVPLLHFYTVRPRRHTR
3 | 0.4 A450 | mouse FGF23 (wild type), Q9EPC2 A159S (protein) YPDTSPLLGSNWGSLTHLYTATARTSYHLQIHRDGHVDGTPHQTIYSALMITSEDAGSVVITGAMTRRFLCMDLHGNIFGSLHFSPENCKFRQWTLENGYDVYLSQKHHYLVSLGRAKRIFQPGTNPPPFSQFLSRRNEVPLLHFYTVRPRRHTR
4 | 0.78 A450 | mouse FGF23 (wild type), Q9EPC2 Q117H (protein) YPDTSPLLGSNWGSLTHLYTATARTSYHLQIHRDGHVDGTPHQTIYSALMITSEDAGSVVITGAMTRRFLCMDLHGNIFGSLHFSPENCKFRHWTLENGYDVYLSQKHHYLVSLGRAKRIFQPGTNPPPFSQFLARRNEVPLLHFYTVRPRRHTR
5 | 0.8 A450 | mouse FGF23 (wild type), Q9EPC2 Q117H; A159S (protein) YPDTSPLLGSNWGSLTHLYTATARTSYHLQIHRDGHVDGTPHQTIYSALMITSEDAGSVVITGAMTRRFLCMDLHGNIFGSLHFSPENCKFRHWTLENGYDVYLSQKHHYLVSLGRAKRIFQPGTNPPPFSQFLSRRNEVPLLHFYTVRPRRHTRSAEDPPERDPLNVLKPRPRATPVPVSCSRELPSAEEGGPAASDPLGVLRRGRGDARGGAGGADRCRPFPRFV
6 | 0.98 A450 | mouse FGF23 (wild type), Q9EPC2 T49N; Q117H; A159S (protein) YPDTSPLLGSNWGSLTHLYTATARNSYHLQIHRDGHVDGTPHQTIYSALMITSEDAGSVVITGAMTRRFLCMDLHGNIFGSLHFSPENCKFRHWTLENGYDVYLSQKHHYLVSLGRAKRIFQPGTNPPPFSQFLSRRNEVPLLHFYTVRPRRHTRSAEDPPERDPLNVLKPRPRATPVPVSCSRELPSAEEGGPAASDPLGVLRRGRGDARGGAGGADRCRPFPRFV
7 | 0.9 A450 | mouse FGF23 (wild type), Q9EPC2 T49N; T76R; Q117H; A159S (protein) YPDTSPLLGSNWGSLTHLYTATARNSYHLQIHRDGHVDGTPHQTIYSALMIRSEDAGSVVITGAMTRRFLCMDLHGNIFGSLHFSPENCKFRHWTLENGYDVYLSQKHHYLVSLGRAKRIFQPGTNPPPFSQFLSRRNEVPLLHFYTVRPRRHTRSAEDPPERDPLNVLKPRPRATPVPVSCSRELPSAEEGGPAASDPLGVLRRGRGDARGGAGGADRCRPFPRFV

Same assay, conditions: chain shown with the change;; read off a plot

Row | ratio to parent | Binder
8 | 1.4 | His-SUMO-FGF23 (N-terminal domain of human FGF23, wild type), Q9GZV9 R99A (protein) YPNASPLLGSSWGGLIHLYTATARNSYHLQIHKNGHVDGAPHQTIYSALMIRSEDAGFVVITGVMSRRYLCMDFAGNIFGSHYFDPENCRFQHQTLENGYDVYHSPQYHFLVSLGRAKRAFLPGMNPPPYSQFLSRRNEIPLIHFNTPIPRRHTRSAEDDSERDPLNVLKPRARMTPAPA
9 | 1.4 | His-SUMO-FGF23 (N-terminal domain of human FGF23, wild type), Q9GZV9 Y107A (protein) YPNASPLLGSSWGGLIHLYTATARNSYHLQIHKNGHVDGAPHQTIYSALMIRSEDAGFVVITGVMSRRYLCMDFRGNIFGSHAFDPENCRFQHQTLENGYDVYHSPQYHFLVSLGRAKRAFLPGMNPPPYSQFLSRRNEIPLIHFNTPIPRRHTRSAEDDSERDPLNVLKPRARMTPAPA
10 | 1.8 | His-SUMO-FGF23 (N-terminal domain of human FGF23, wild type), Q9GZV9 Y70A (protein) YPNASPLLGSSWGGLIHLYTATARNSYHLQIHKNGHVDGAPHQTIASALMIRSEDAGFVVITGVMSRRYLCMDFRGNIFGSHYFDPENCRFQHQTLENGYDVYHSPQYHFLVSLGRAKRAFLPGMNPPPYSQFLSRRNEIPLIHFNTPIPRRHTRSAEDDSERDPLNVLKPRARMTPAPA
11 | 1.7 | His-SUMO-FGF23 (N-terminal domain of human FGF23, wild type), Q9GZV9 Y43A (protein) YPNASPLLGSSWGGLIHLATATARNSYHLQIHKNGHVDGAPHQTIYSALMIRSEDAGFVVITGVMSRRYLCMDFRGNIFGSHYFDPENCRFQHQTLENGYDVYHSPQYHFLVSLGRAKRAFLPGMNPPPYSQFLSRRNEIPLIHFNTPIPRRHTRSAEDDSERDPLNVLKPRARMTPAPA

Second part, the binder before the results:

Row | Binder | ratio to parent
12 | His-SUMO-FGF23 (N-terminal domain of human FGF23, wild type), Q9GZV9 R48A (protein) YPNASPLLGSSWGGLIHLYTATAANSYHLQIHKNGHVDGAPHQTIYSALMIRSEDAGFVVITGVMSRRYLCMDFRGNIFGSHYFDPENCRFQHQTLENGYDVYHSPQYHFLVSLGRAKRAFLPGMNPPPYSQFLSRRNEIPLIHFNTPIPRRHTRSAEDDSERDPLNVLKPRARMTPAPA | 1
13 | His-SUMO-FGF23 (N-terminal domain of human FGF23, wild type), Q9GZV9 F82A (protein) YPNASPLLGSSWGGLIHLYTATARNSYHLQIHKNGHVDGAPHQTIYSALMIRSEDAGAVVITGVMSRRYLCMDFRGNIFGSHYFDPENCRFQHQTLENGYDVYHSPQYHFLVSLGRAKRAFLPGMNPPPYSQFLSRRNEIPLIHFNTPIPRRHTRSAEDDSERDPLNVLKPRARMTPAPA | 1.1
14 | His-SUMO-FGF23 (N-terminal domain of human FGF23, wild type), Q9GZV9 F108A (protein) YPNASPLLGSSWGGLIHLYTATARNSYHLQIHKNGHVDGAPHQTIYSALMIRSEDAGFVVITGVMSRRYLCMDFRGNIFGSHYADPENCRFQHQTLENGYDVYHSPQYHFLVSLGRAKRAFLPGMNPPPYSQFLSRRNEIPLIHFNTPIPRRHTRSAEDDSERDPLNVLKPRARMTPAPA | 6.2
15 | His-SUMO-FGF23 (N-terminal domain of human FGF23, wild type), Q9GZV9 H52A (protein) YPNASPLLGSSWGGLIHLYTATARNSYALQIHKNGHVDGAPHQTIYSALMIRSEDAGFVVITGVMSRRYLCMDFRGNIFGSHYFDPENCRFQHQTLENGYDVYHSPQYHFLVSLGRAKRAFLPGMNPPPYSQFLSRRNEIPLIHFNTPIPRRHTRSAEDDSERDPLNVLKPRARMTPAPA | 9
16 | His-SUMO-FGF23 (N-terminal domain of human FGF23, wild type), Q9GZV9 E121A (protein) YPNASPLLGSSWGGLIHLYTATARNSYHLQIHKNGHVDGAPHQTIYSALMIRSEDAGFVVITGVMSRRYLCMDFRGNIFGSHYFDPENCRFQHQTLANGYDVYHSPQYHFLVSLGRAKRAFLPGMNPPPYSQFLSRRNEIPLIHFNTPIPRRHTRSAEDDSERDPLNVLKPRARMTPAPA | 1
17 | His-SUMO-FGF23 (N-terminal domain of human FGF23, wild type), Q9GZV9 H133A (protein) YPNASPLLGSSWGGLIHLYTATARNSYHLQIHKNGHVDGAPHQTIYSALMIRSEDAGFVVITGVMSRRYLCMDFRGNIFGSHYFDPENCRFQHQTLENGYDVYHSPQYAFLVSLGRAKRAFLPGMNPPPYSQFLSRRNEIPLIHFNTPIPRRHTRSAEDDSERDPLNVLKPRARMTPAPA | 2.2
18 | His-SUMO-FGF23 (N-terminal domain of human FGF23, wild type), Q9GZV9 R76A (protein) YPNASPLLGSSWGGLIHLYTATARNSYHLQIHKNGHVDGAPHQTIYSALMIASEDAGFVVITGVMSRRYLCMDFRGNIFGSHYFDPENCRFQHQTLENGYDVYHSPQYHFLVSLGRAKRAFLPGMNPPPYSQFLSRRNEIPLIHFNTPIPRRHTRSAEDDSERDPLNVLKPRARMTPAPA | 8.2

The binders below were run against alanine substitution at H52, R76, F108 residues of FGF23 (three single mutants, as a group) (human) (assay: ELISA; indirect ELISA: FGF23 or its mutants coated at 2 µg/mL on Maxisorp plates (4 °C overnight), Burosumab or its variants three-fold serially diluted in PBS from 9 µg/mL, room temperature 2 h, anti-human IgG H&L-HRP, A450; fold change from Kd values against the wild type). Conditions: not given.

Row | fold decrease in binding against wild-type FGF23 | Binder
19 | 7 to 10 fold | Burosumab (wild type) (antibody, V domains shown) VH: QVQLVQSGAEVKKPGASVKVSCKASGYTFTNHYMHWVRQAPGQGLEWMGIINPISGSTSNAQKFQGRVTMTRDTSTSTVYMELSSLRSEDTAVYYCARDIVDAFDFWGQGTMVTVSS VL: AIQLTQSPSSLSASVGDRVTITCRASQGISSALVWYQQKPGKAPKLLIYDASSLESGVPSRFSGSGSGTDFTLTISSLQPEDFATYYCQQFNDYFTFGPGTKVDIK
